# Experimental data reported in the nanobody polyreactivity screen of Harvey et al. (2022).
# Test: yeast display, Sf9 membrane polyspecificity reagent, FACS + sequencing; frameworks hold sequencing errors
# Method in brief: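 In a synthetic yeast display library (Saccharomyces cerevisiae BJ5465), nanobody expression was induced with galactose for 36–48 hours. FACS gates were set low and high (top ~1%) using anti-HA fluorescence for expression and streptavidin fluorescence for binding of the Sf9 membrane reagent. Each polyreactivity label is drawn from the gate of origin.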
row,Sequence,polyreactivity (PSR sort gate)
1,QVQLVESGGGLVQAGGSLRLSCAASGSILQHYAMGWYRQAPGKERELVASISWTGGSTYYADSVKGRFTISRDNAKNTVYLQMNSLKPEDTAVYYCAARRYRYYSRGSWGQGTQVTVSS,high polyreactivity
2,QVQLVESGGGLVQAGGSLRLSCAASGRIFYAYTIGWYRQAPGKERELVAAISGSGSTYYADSVKGRFTISRDNAKNTVYLQMNSLKPVDTAVYYCAADVTGGRKYDYWGQGTQVSVSS,low polyreactivity
3,QVQLVESGGGLVQAGGGLRLSCAASGFTFYLYVMGWYRQAPGKERELVARISRSGGTTYYADSVKGRFTISRDNAKNTVYLQMNSLKPEDTAVYYCAARRYGVPPTYDYCGQGTQVTVSS,high polyreactivity
4,QVQLVESGGGLVQAGGSLRLICAASGSILTHYAMGWYRQAPGKERELVAAITWRGGSTYYADSVKGRFTISRDNAKNTVYLQMNSLKPEDTAVYYCNADYFGGGDYWGQGTQVTVSS,low polyreactivity
5,QFQLVESGGGIVQAGGSLRLSCAASGFTFVYYAMGWYRQAPGKERQLVAAITRSAGSTYYADSVKGRFTISRDNAKNTVYLQMNSLKPEDTAVYYCAALNSRYSKAQRMDYWGQGTQVTVSS,low polyreactivity
6,QVQHVESGAGLVQAGGSLRLRCAASGIIFYYYAMGWYRQAPGKERELVASISRSGTDTYYADSVKGRFTISRDNAKYTVYLQMNSLIPEDTAVYDCAAKLYSKRTGARMNYWGQGTQVTVSS,high polyreactivity
7,QVQLVESGGGLVQAGGSLRLSCAASGSIFYGYAMGWYRQAPGKERELVAGISNGGSTNYADSVKGRFTISRDNAKNTVYLQMNSLKPEDTAVYYCNRDGTYVYHGGEYCGQGTQVTVSS,low polyreactivity
8,QVEHVESGGGLVQAGGSLRLSCAASGSIIVDNAMGWSRQAPGKDRELVAAISVGGGRTYYADSVKGRFTISRDNAKNTVYLQMNSLKPEDTAVYYCNRVPTRGPHGVWFGYCGQGTQVTVSS,high polyreactivity
9,QVQLVESGGGLYQAGGSLRLSCAASGRIFATNAMRWSRQAPGKERELVATITRSAGRTYYADSVKGRFTISRDNAKNTVYLQMNSLKPEDTAVYYCAASYWDTEPGYREYDYWGQGTQVTVSS,low polyreactivity
10,QVQLVESGGGVVQAGGSLRLSCAASGFTFVRYTMGWYRQAPGKERELVAAITKRGGSTYYADSVKGRFTISRDNAKNTVYLQMNSLKPEDTAVYYCAAAVGNTDREYDYWGQGTQVTVSS,low polyreactivity
11,QVQLVESGGGLVQAGGSLRLSCAASGSTFPFYAMGWYRQAPGKERELVATISSDGSTNYADSVKGRFTISRDNAKNTDYLQMNSLKPEDTAVYYCNALARWCAYYDYGYWGQGTQVTVSS,low polyreactivity
12,QVHLVESGGGLFQAGGRLRLSCAAAGSTFPKYARGWYRQAPGKERELVAAISWSGDSTNYADSVKGRITISRDNAKNTVYVQMNSLKPEDTAVYYCAAYNFIHAGPWEYDYWGQGTQVTVSS,low polyreactivity
13,QVQLVESGGGLVQAGGSLRLSCAASGNTFGENAMGWYRQAPGKERELVAAISNGGTTNYADSVKGRFTISRDNAKNTVYLQMNSLKPEDTAVYYCNAKFGISQPGHSGLLKMDYWGQGTQVTVSS,low polyreactivity
14,QFHLVESGGRLVQAGGSLRLSCAASGRIFYYYVMGWYRQAPGKERELVAVIDWSGGSTYYADSVKGRFTISRDNAKNTVYVQMNSLKPEDTAVYYCAKVWLNFSLAYEDYDYWGQGTQVTVSS,low polyreactivity
15,QVQLVESGGGLVQAGGRLRLSCAASGSTFPKYAMGWYRQAPGKERELVASISVTTGSTYYADSVKGRFTISRDNAKNTVYLQMNSLKPEDTAVYYCAKRTYSRKFRGAYNYWGQGTQVTVSS,high polyreactivity
16,QVQLVESGGGLVQAGGSLRLSCAASGSTLVGYDMGWYRQAHGKEMELVADITSTGSTNYADSVKGSFTISRDNAKNTVYLQMNSLKPEDTAVYYCAADLYFYIYSYNYWGQGTQVTVSS,low polyreactivity
17,QVQLVESGGGLVKAGGSLRLSCAASGRIFWHNAMGWYRQAPGNERELVAAITGGGSTYYADSVKGRFTISRDNAKNTVYLQMNSLKPEDTAVYYCATLGSLRYYWPGYDYWGQGTQVTVSS,low polyreactivity
18,QVQHVESGGGLVQAGGSLRLSCAASGFIFRYYAMGWYRQAPGKERELVAAITWNGGSTYYADSVKGRFTISRDNAKNTVYLQLNSLKPEDTAVYYCADVPYTPSPYTYGYWGQGTQVSVSS,high polyreactivity
19,QVQLVESGGGLVQAGGSLRLSCAASGFIFYTNAMGWYRQAPGKERELVAAISRGGTTYYADSVKGRFTISRDNAKNTVYLQMNSLKPEDTAVYYCAKAWPDHWYSRYDYWGQGTQVTVSS,low polyreactivity
20,QVQLVESGGGLVQAGGSLRLSCAASGRTFTWNVMGWYRQAPGKERELVAAITTDDRTYADSEKGRFTISRDNAKNTVYLQMNSLKQEDTAVYYCATVVAWTSRPVGEDYWGQGTQVTVSS,low polyreactivity
21,QVQLVESGGGLVQAGGSLRLSSAASGRIFNGNAMGWSRQSPGKERELVAAISSGGRTYYADSVKGRFTISRDNAKNTVYLQMNSLKPEDTEVYYCAARVILTTYSRNYYYWGQGTQVTVSS,high polyreactivity
22,QVQLVESGGCLVQAGGSLRLSCAASGYIFFINSMGWYRQAPGKERELVAAITRRGVSTYYADSVKGRFTISRDNAKNSVYLQMHSLKPEDTAVYYCATEHNHLGYYYWGQGTQVTVSS,low polyreactivity

row,Sequence,polyreactivity (PSR sort gate)
1,QVQLVESGGGLVQAGGSLRLRCAASGNTFGYYTMGWYRQAPAKESELVASIDSGGGTNYADSVKGRFTISRDNAKNTVYLQMNRLKPEDTAVYSCAAASPLYWVDDFESGWRYYYWGQGTQVTVSS,low polyreactivity
2,QVQLVESGGGLVQAGGSLRLSCAASGSTFFPNAMGWDRQAPGKERELVAAITRSDDDTYYADSVKGRFTISRVHAKNTVYLQMNCLKPEDTAVYYCAADGTSTDSPSWPGYEYWGQGTQVTVSS,low polyreactivity
3,QVQLVESGGGLVKAGGSLRLSCAASFFFYDMGWYRQAPGKERELVAAISWRGDTTYYADSVKGRFTISRDNAKNTVYLQMNSLKPEDTAVYYCAADYYGNVVYPSYYWGQGTQVTVSS,high polyreactivity
4,QVQLLESGGGLVQAGRSLRLSCSASGRTLVYNAMGWYRQAPGKERELVAGITNGGSTNYADSVKGRFTISRDTAKNTVYLQMNSLKPEDTAVYYCAADSRVYPYYFGDFGYWGQGTQVTVSS,low polyreactivity
5,QVQLVESGGGLVQAGGSLRLSCASSGGTLFQNAMGWYRQAPGKESELVATIRVSGGITYYADSVKGRFTISRDNAKNTVYFQMNSLNPEDTAVYYCAKDSADSRAVGDVMTFDYWGQGTQVTVSS,low polyreactivity
6,QVQLVESGGGIVQAGGSLRLSCAASGFTFAVNAMGWYRQAPGKERELVAGISRRGGNTYYADSVKGRFTISRDNAKNTVYLQMNSLKPEDTAVYYCARYSYSYWGQGTQVTVSS,high polyreactivity
7,QVQLVESGGGLVQAGGSLRLSCAASGIFTYNAMGWYRQAPGKERELVASITRGGSTNYADSVKGRFTISRDNAKNTVYLQMNSLKPEDTAVYYCAARVRVYSGWLYNYWGQGTQVTVSS,high polyreactivity
8,QVQLVESGGGLVQAGGSLRLSCAASGSTFYLYAMGWYRQAPGKEREFVAAITYSAGSTYYADSVKGRFTISRDNAKNTVYLQMNSLKPEDTAVYYCAARHYAVRRSRYPGKLGYYWGQGTQVTVSS,high polyreactivity
9,QVQLVESGGVLVQAAGSLRLSCAASGSIFDVNAMGWNRQAPGKEREFVAAISDSGGSTYYADSVKGRFTISRDNGKNTVYLQMNSLKPEDTAVYYCNADWSWYNYYDFDYWGQGTQVTVSS,low polyreactivity
10,RVQLVESAGGLLQAGGSLRLSCAASGRTFTLYAMGWDRQAPGKDRELVAAIRWSGSSTYYADSVKGRFTISRDYAKHTVYLQINSLKPEATAVYYCAARAGRYERYGYWGQGTQVTVSS,high polyreactivity
11,QVQLVESGGGLVQAGGSLRLSCAASGITFQLYAMGWYRQAPGKERELVAAIDASGGITNYADSVKGRFTISRDNAKNTVYLQMNSLKPEDTAVYYCASFFKLRYRYQFWRYGFGYWGQGTQVTVSS,high polyreactivity
12,QVQLVESGGGLVQAGGSLRLSCAASGFTSDGYAMGWYRQAPGKERELVAAISWRGGSTYYADSVKGRFTISRDNAKNTVYLQMNSLKPEDTAVYYCAKDYYYGLEHYGYWGQGTQVTVSS,low polyreactivity
13,QVQLVESGGGLVQAGGSLRLSCAASGSTFRWYAMGWYRQAPGKERELVAAISWSGSTTYYADSVKGRFTISRDNAKNTVYLQMNSLKPEDTAVYYCAAEVVFFGWNYDYWGQGTQVTVSS,high polyreactivity
14,QVQLVESVGGLVQAGGSLRLSCAASGSIFADYAMGWYRQAPGKERELVAAMTGSGGRTYYADSVKGRFTISRDNAKNTVYLHMNSLKPEDTAVYYCAAYQVGWDPYPRYDYWGQGTQVTVSS,low polyreactivity
15,QVQLVESGGGLVQAGGSLRLSCAASGSTFQFYAMGWYRQAPGKEREFVAAITTRSGSTYYADSVKGRFTISRDNAKNTVYLQMNSLKPEDTAVYYCAAYIYGHSSDSVRYEYWGQGTQVTVSS,low polyreactivity
16,QVQLVESGGGLVQAGGSLRLSCAASGRTFYSYVMGWYRQAPGKERELVAAISGRGVSTYYADSVKGRFTISRDNAKNTVYLQMNSLKPEDTAVYYCAAETVHGSADFDYWGQGTQVTVSS,low polyreactivity
17,QVQLVESGGGLVQAGGSLRLSCAASGFTFVYYTMGWYRQAPGKERELVAAITSGGRTYYADSVKGRFTISRDNAKNTVYLQMNSLKPEDTAVYYCAAPDRYRGYIGYGYWGQGTQVTVSS,high polyreactivity
18,QVQLVESRGGLVQAGGSLGLSCAASGSTFGYYAMGWYRQAPGKERELVAGISTGGSTYYAYSVKGRFTISRDNAKNTVYFQINSLKPDDTAVYYCAATRYNRWPIKFDYWGQGTQVTVSS,high polyreactivity
19,QVQLVESGGGIVQAGGSLRLSCAASGRIFSPNAMGWYRQAPGKERELVASISSAGSTNYADSVKGRFTISRDNAKNTVDLLMKSLIPEDTAVYYCDADQPYYGYWDWYSHEYDYWGQGTQVSVSS,low polyreactivity
20,QVQLVESGGALLQAGGSLRLSCAASGRTFGYNAMGWYRQAPGKEREMVAAITYSGGRTSYADSVKGRFTISRDNAKNTVYLQMNSLKPEDTAVYYCAAQTRYYSGYNYWGQATQVTVSS,high polyreactivity
21,QVQLVESGGGLVQAGGSLRLSCAASGSTFTYYAMGWYRQAPGKEREFVATITYSGGSTYYADSVKGRFTISRDNAKNTVYLQMNSLKPEDTAVYYCAARVGRPSLVAAKYDYWGQGTQVTVSS,high polyreactivity
